Data as given in the RNAGym collection of RNA variant scans (doi:10.1093/molbev/msab373).

B1: Azoarcus group I ribozyme (parent)
chain: GUGCCUUGCGCCGGGAAACCACGCAAGGGAUGGUGUCAAAUUCGGCGAAACCUAAGCGCCCGCCCGGGCGUAUGGCAACGCCGAGCCAAGCUUCGGCGCCUGCGCCGAUGAAGGUGUAGAGACUAGACGGCACCCACCUAAGGCAAACGCUAUGGUGAAGGCAUAGUCCAGGGAGUGGCGAAAGUCACACAAACCGG

Variants of: B1
Assay: reverse-splicing fitness (ratio to wild type); higher = more active; in vitro selection; Mg2+ level not given
Procedure, shortened: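 An in vitro group I ribozyme library with randomized positions was T7-transcribed and gel-purified. In triplicate, 10 pmol RNA in EPPS pH 7.5 was reacted with 50 pmoles of a 30-nt RNA substrate for 1 h at 37 °C across several added MgCl2 levels (1–48 mM), then stopped with EDTA. Products were reverse transcribed from a substrate-complementary primer, PCR-amplified and sequenced (HiSeq 4000). Fitness is a variant's read proportion after selection over that before, normalised to wild type.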

Variant	reverse-splicing fitness
C82A A111C A120G A145C C150U C169A U176C	0.00619
C82A A111C A120G A145C C150U C169A U176A	0.0112
C82A A111C A120G A145C C150U C169A U176G	0.00632
C82A A111C A120G A145G	0.0153
C82A A111C A120G A145C	0.0129
C82A A111C A120C A145C C150U C169U	0.0108
C82A A111C A120C A145C C150U C169G	0.00741
C82A A111C A120C A145C C150U C169A	0.0105
C82A A111C A120C A145G C169A	0.00886
C82A A111C A120C A145G C169G	0.00846
C82A A111C A120C A145G C169U	0.0141
C82A A111C A120C A145G C150U U176A	0.0119
C82A A111C A120C A145G C150U U176C	0.0208
C82A A111C A120C A145G C150U U176G	0.00852
C82A A111C A120C A145C C169A U176A	0.0158
C82A A111C A120C A145C C169A U176C	0.00859
C82A A111C A120C A145C C169A U176G	0.00646
C82A A111C A120C A145G C150A C169U	0.00994
C82A A111C A120C A145G C150A C169G	0.00833
C82A A111C A120C A145G C150A C169A	0.0106
C82A A111C A120C C150A C169U U176A	0.0173

Variant	reverse-splicing fitness
C82A A111C A120C C150A C169U U176C	0.015
C82A A111C A120C C150A C169U U176G	0.00868
C82A A111C A120C C150U U176C	0.0187
C82A A111C A120C C150U U176G	0.0074
C82A A111C A120C C150U U176A	0.0123
C82A A111C A120C A145C C150G C169U	0.00879
C82A A111C A120C A145C C150G C169G	0.00631
C82A A111C A120C A145C C150G C169A	0.00854
C82A A111C A120G A145C C150G C169G U176A	0.00836
C82A A111C A120G A145C C150G C169G U176G	0.00475
C82A A111C A120G A145C C150G C169G U176C	0.00766
C82A A111C A120C C169U U176C	0.0149
C82A A111C A120C C169U U176G	0.00697
C82A A111C A120C C169U U176A	0.0152
C82A A111C A120C A145C C150U C169U U176A	0.0135
C82A A111C A120C A145C C150U C169U U176C	0.0105
C82A A111C A120C A145C C150U C169U U176G	0.00738
C82A A111C A120C A145G C150U C169U	0.0133
C82A A111C A120C A145G C150U C169G	0.00829
C82A A111C A120C A145G C150U C169A	0.0108
C82A A111C A120G A145C C150A U176C	0.0105

Variant	reverse-splicing fitness
C82A A111C A120G A145C C150A U176A	0.0103
C82A A111C A120G A145C C150A U176G	0.00559
C82A A111C A120C A145U C150G C169A	0.00977
C82A A111C A120C A145U C150G C169U	0.01
C82A A111C A120C A145U C150G C169G	0.00675
C82A A111C A120C A145G C150U C169A U176A	0.0159
C82A A111C A120C A145G C150U C169A U176G	0.00826
C82A A111C A120C A145G C150U C169A U176C	0.0162
C82A A111C A120C A145C C150U C169G U176G	0.00659
C82A A111C A120C A145C C150U C169G U176C	0.0178
C82A A111C A120C A145C C150U C169G U176A	0.0269
C82A A111C A120C C150G C169G U176G	0.00646
C82A A111C A120C C150G C169G U176A	0.00786
C82A A111C A120C C150G C169G U176C	0.00606
C82A A111C A120C A145C C150A C169G	0.00813
C82A A111C A120C A145C C150A C169U	0.0105
C82A A111C A120C A145C C150A C169A	0.00755
C82A A111C A120C A145C C150A C169A U176A	0.0167
C82A A111C A120C A145C C150A C169A U176C	0.00935
C82A A111C A120C A145C C150A C169A U176G	0.00733
C82A A111C A120C A145C U176C	0.0149

Variant	reverse-splicing fitness
C82A A111C A120C A145C U176G	0.00663
C82A A111C A120C A145C U176A	0.0123
C82A A111C A120C A145G C150G C169U U176A	0.0109
C82A A111C A120C A145G C150G C169U U176C	0.0109
C82A A111C A120C A145G C150G C169U U176G	0.00808
C82A A111C A120C C150A C169G	0.00949
C82A A111C A120C C150A C169U	0.0133
C82A A111C A120C C150A C169A	0.0111
C82A A111C A120C C150A C169A U176G	0.00827
C82A A111C A120C C150A C169A U176C	0.0181
C82A A111C A120C C150A C169A U176A	0.0196
C82A A111C A120G A145C C150U C169G	0.00775
C82A A111C A120G A145C C150U C169U	0.00644
C82A A111C A120G A145C C150U C169A	0.00801
C82A A111C A120C A145C C150A	0.0107
C82A A111C A120C A145C C150G	0.00873
C82A A111C A120C A145C C150U	0.0124
C82A A111C A120G A145G C150A C169U	0.00923
C82A A111C A120G A145G C150A C169G	0.00887
C82A A111C A120G A145G C150A C169A	0.0099
